Source: publication PMC12447900

Assays:
[1] = biological target: recombinant HA-tagged Vimentin (Vimentin-HA) (human) (UniProt P08670); test: ELISA; Vimentin-HA coated as ligand at 10 ug/ml in PBS on polystyrene wells; AP-MS candidate as analyte, 1 h at RT in PBS, 0.1 % BSA, 0.02 % Tween-20; detected by anti-SpyTag antibody; approximate Kd by one-site total saturation binding fit
[2] = biological target: EPHB2, recombinant ectodomain (human) (UniProt P29323); test: ELISA; AP-MS candidate coated as ligand at 10 ug/ml in PBS on polystyrene wells; Vimentin-HA as analyte, 30 min at RT in PBS, 0.1 % BSA, 0.02 % Tween-20; detected by anti-HA-tag antibody; approximate Kd by one-site total saturation binding fit
[3] = biological target: EPHA2, recombinant ectodomain (human) (UniProt P29317); test: as above
[4] = biological target: LRRC15, recombinant ectodomain (human) (UniProt Q8TF66); test: as above

Kd [1] [nM] | Kd [2] [nM] | Kd [3] [nM] | Kd [4] [nM] | Substance
119 |  |  |  | TFRC, recombinant ectodomain (from UniProt P02786 89-760) (receptor)
 | 65.3 | 20.7 | 53.6 | recombinant HA-tagged Vimentin (Vimentin-HA) (from UniProt P08670 1-466) (natural protein)
232 |  |  |  | DKK1, recombinant (from UniProt O94907 32-266) (ligand)
